Reference: PMC11474084, “Capturing a methanogenic carbon monoxide dehydrogenase/acetyl-CoA synthase complex via cryogenic electron microscopy” (Proceedings of the National Academy of Sciences of the …, 2024)

B1: Methanosarcina thermophila acetyl-CoA synthase (MetACS) β subunit (enzyme, UniProt A0A0E3NEI1 1-472, looked up)
chain: MSEFPFEISPMFEGERVRKEGMFVELGGPKSLGLELVRAKPMDEIEDGKVTIVGPDLKDMEEGKTYPWAMIFHVGGELVEPDLESVIERRVHDFINYCQGIMHLNQRYDVWMRISKDTAAKMDSFEPFGKAVMMLFKTELPFIEKMQVTFYTDQAEVEKQMAEAMEIFKARDARTKDLHDEDVDVFYGCTLCQSFAPTNVCVVSPDRVSLCGAINWFDGRAAAKVDPEGPQFAIEKGELLDAKTGEYSGVNEVAKKLSSGEFDKIKLHSFFDAPHTSCGCFEVVGFYIPEVDGIGWVNREYQGMAPNGLGFSTMAGQTGGGKQIVGFLGIGINYFYSPKFIQADGGWNRVVWLPSMLKEKIDEAIPDDMKDKIATEKDVTDIESLKTFLKEKNHPVVANWAAEAEEEEEEEEEEEEVAAEAAPMMMPAAGFQMPAMPAMPMMSGGAGGIKLTFKNAKITIDRMIISEKKEKK
notes: β (ACS) subunit of the ACDS complex, Methanosarcina thermophila strain TM-1; native protein; the model building counts residues 1 to 472, of which 398 to 472 (C-terminal extension) had no EM density; A2 domain residues 4 to 151, A3 domain residues 186 to 397; Carries the Ni-Fe-S A-cluster, with density modelled as CO on the proximal nickel; The deposited coordinates hold only about residues 1-397 …
B2: Methanosarcina thermophila carbon monoxide dehydrogenase (MetCODH) α subunit (enzyme, UniProt A0A0E3ND19 1-803, looked up)
chain: MSKLTTGSFSIEDLESVQITINNIVGAAKEAAEKAEEELGPMGPTPFPTAATVRDWSFTLFDRYEPVYTPMCDQCCYCTFGPCNLEGNRRGACGLDMKGQAAREFFLRCITGCACHSAHGRHLLDHIISIFGEDMPINMGASNVIAPNIQLITGRQPKTLGDLKPIMEYVEEELGQLLATVHAGQEGAAIDYDNKAMLAGILDHVGMEVSDIAQVTALGFPKSDPEAPLVEVGMGTLDASKPVIIAIGHNVAGVTYIMDYMEDNNLTDKMEIGGLCCTAFDMTRYKREDRKPPYAKIVGTISKELKVVRSGIPDVIVIDEQCVRADLVEEGKKLKIPVIASNEKVMYGLPDRTNDDVDAIIEDIKTGKIPGCVMLDYEKLGELVPRLAMEMAPLREGISAIPSDEEMASLVAKCVACGECALACPEELDIPDAIQAAKEGDFTALDFLHDLCVGCRRCEQVCNKEIPILSVIDKAAQKAIAEEKGLVRAGRGQVSDAEIRAEGLNLVMGTTPGVIAIIGCANYPAGSKDVYRIAEEFLNRNYIVAVSGCSAMDIGMYKDADGKTLYERFPGRFERGNILNTGSCVSNSHISGTCHKVAAIFAGRNLSGNLAEIADYTLNRVGAVGLAWGAYSQKAAAIGTGCNMYGIPAVLGPHSGKYRRALIAKTYDENKWKVYDSRNGSELDIPPSPEFLITTAETWQEACVLLAKNCIRPSDNNMGRSIKLTHWIELSEKYLGVLPEDWWKFVRHEADLPLSRREELLKKLETEHGWEIDWKKKKIISGPKIKFDVSSQPTNLKRLCKEA
notes: α subunit of the CODH component of the acetyl-CoA decarbonylase/synthase (ACDS) complex, Methanosarcina thermophila strain TM-1; source: purified from M. thermophila strain TM-1 as part of the ACDS complex (Sepharose CL-6B); subcomplexes formed by dissociation on the cryo-EM grid

Columns and labels:
[1] = target: B2; experiment: cryo-EM structure; purified native ACDS complex, 4 mg/mL in 25 mM MOPS, 25 mM Na2SO4, pH 7.2; chameleon-plunged, dispense-to-plunge time 150 ms; on-grid dissociation gave CODH tetramer (2.8 Å), CODH/ACS pentamer and hexamer (3.2 Å each); conditions: both partners purified
[2] = target: the molecule itself; experiment: as above

## B1
[1]
  binding result: binds

## B2
[2]
  binding result: binds
